# Measured values taken from the DeepSol protein solubility set.
# Assay: soluble on expression in E. coli; label from the status in PepcDB or PDB records
row,Sequence,soluble on expression in E. coli
1,MLPKAARIPHAMTLHGDTRIDNYYWLRDDTRSQPEVLDYLQQENSYGHRVMASQQALQDRILKEIIDRIPQREVSAPYIKNGYRYRHIYEPGCEYAIYQRQSAFSEEWDEWETLLDANKRAAHSEFYSMGGMAITPDNTIMALAEDFLSRRQYGIRFRNLETGNWYPELLDNVEPSFVWANDSWIFYYVRKHPVTLLPYQVWRHAIGTPASQDKLIYEEKDDTYYVSLHKTTSKHYVVIHLASATTSEVRLLDAEMADAEPFVFLPRRKDHEYSLDHYQHRFYLRSNRHGKNFGLYRTRMRDEQQWEELIPPRENIMLEGFTLFTDWLVVEERQRGLTSLRQINRKTREVIGIAFDDPAYVTWIAYNPEPETARLRYGYSSMTTPDTLFELDMDTGERRVLKQTEVPGFYAANYRSEHLWIVARDGVEVPVSLVYHRKHFRKGHNPLLVYGYGSYGASIDADFSFSRLSLLDRGFVYAIVHVRGGGELGQQWYEDGKFLKKKNTFNDYLDACDALLKLGYGSPSLCYAMGGSAGGMLMGVAINQRPELFHGVIAQVPFVDVVTTMLDESIPLTTGEFEEWGNPQDPQYYEYMKSYSPYDNVTAQAYPHLLVTTGLHDSQVQYWEPAKWVAKLRELKTDDHLLLLCTDMDSGHGGKSGRFKSYEGVAMEYAFLVALAQGTLPATPAD,not soluble
2,MIPLVSIIVPMYNVEPFIEECIDSLLRQTLSDIEIILVNDGTPDRSGEIAEDYAKRDARIRVIHQANGGLSSARNTGIKAARGTYIGFVDGDDYVSSAMFQRLTEEAEQNQLDIVGCGFYKQSSDRRTYVPPQLEANRVLTKPEMTEQLKHAHETRFIWYVWRYLYRRELFERANLLFDEDIRFAEDSPFNLSAFREAERVKMLDEGLYIYRENPNSLTEIPYKPAMDEHLQKQYQAKIAFYNHYGLAGACKEDLNVYICRHQLPMLLANACASPNSPKDIKKKIRQILSYDMVRQAVRHTPFQHEKLLRGERLVLALCKWRLTFLIKLFFEQRGTMKGSAKQALEHHHHHH,not soluble
3,MEQPEKNIKLAYDGEIHLAVGASKTEKKWKNRQMSWSDFTQRLKTPTVTQETVEDYKKMPKSKQGEVKDVGAFIGGWLKEGRRKRGNTQQRSLVTLDADSTTLDFWDDVQLLFDHAAAVYTTHSHLVKGPRYRLIIPLSRPVTAEEYEPLARKLAEFFGMDNFDDTTYQAERLMYWPSHSIDGEYFTDNIDLPWVDPDEILSQYEDWRDASFWPESSRGHSIRERQAKKAGDPLEKKGIVGAFCRTYDIISAIETFLPDIYGSTGREDRWTFLEGSTSGGLVIYDDKFAYSHHGTDPVGDQLVNAFDLVRIHLFGDLDEDVKPTTRIDRYPSFKAMREFAMEDKQVKTLIQSEKLSQALEDFDGELDELEEDDKDWFTKLDLEIDEYGQIMASAKNLEVIMLNDPNLKKKIFMNSFSNRIEVKDNLPWRKLDRDKMWKDSDDAGLRVYIEKIYGIVNRGKIDDALVQEIERNSYDPVKEYLESLHWDGVPRVETLLIDYLGAEDTPFIRVVTKKFLTAAVGRIFVPGIKFDYMLVTSGPQGIGKTLLPAKLAGDWFSNSLEGVTGKDSYEALQGVWIMEMGELSATKKADIEATKHFISKQEDIFRVAYGRHKSYFKRRCVFWGTTNDNEFLRDKTGNRRFWPVDVGIQPIKNKVWEMTDETRNQIWAEAVELWQAGEPLYLTDEQEKLALEAQEMHTETSSMEGEILEYLEIPITEDWYKRSKQERREYIQGWGTDIQEEGEIVRNKVCIAEVWNELYNGDSKNIHPAKAAEIRQVLSHLSGWEKNSKGNKGRLRFGPGYGVQVAYLRVTP,not soluble
4,MGSDKIHHHHHHMDARSLISLIPSLSAYKWYGKVTRVIGLTIEAKGPQASIGELCYILVGKQGTKVMAEVVGFKEERVLLMPLNGTAEIAPGSLVEGTGRPLQVKVGYSLIGHVIDGCGRPLTGEALPNGLTPYPTDNPPPNPISRPRIKEAMHLGVRAIDGLLTVGKGQRVGIFAGSGVGKSTLLAMLAKNAAADLNIIALIGERGREVKDFIERDLGEDGLRRSIIVVATSDQPALMRIKGAMTATALAEYFRDQGLHVNLMMDSVTRFAMAQREIGLAVGEPPTTKGYTPSVFALLPKLLERAGTNGKGSITGFYTVLVDGDDLNEPISDTVRGILDGHFVLDRELANKGHYPAINILKSVSRVMNDIVTDEQKRAAEHVRSLLSVYKESEDLINIGAYKRGSSKQIDEAIERQPEVISFLRQNTDEVAIAEHSIQQLIQAFGKGD,not soluble
5,SNAKVILYARVSSNTQKDDLANQVKYLEEQVKEYDLVITDIGSGLNMKRKGFLKLLRMILNNEVSRVITAYPDRLVRFGFEILEEVCKAHNCEIVVLNQEDKTPEEELVEDLATILVSFSGKLHGMRSQKYEKVKKCAEELKN,soluble
6,GKKQEPFEQVTIDIEEQHQGSVMEALGIRKGEVKDMIPDGKGRTRLEYVIPSRGLIGFRNEFMTMTSGTGLLYSSFSHYDDVKLGEIGQRKNGVLISNATGKALAYALFGLQERGKLMIEHGVDVYEGQI,not soluble
7,MSSKPRHDWFQSETDVTLTILKRGVPLDDCSVSLSDNNTLTVKQCDEILFYGQLSGQVKKDDLTVKCTAAKVEVRLPKFARNERWASLLKDGQGVAASVQSVSPNPESAPTTTVKKNWDAIEKQAVKEEEDESLEGDAAVNKMFRKMYNDASDDVRRAMMKSYSESNGTVLSTNWSEIGQKKTECQPPACMEYKEYEK,not soluble
8,MARLLEEHGFETKTNVIVQGNCVEQEIDVVAERDGERYMIECKFHNIPVYTGLKEAMYTYARFLDVEKHGFTQPWIFTNTKFSEEAKKYAGCVGIKLTGWSYPEKEGIEVLLESKGLYPITILRIDKEVLDELVRAGLVFCRDVVSAGEEKLREIGLSAKKAREVIAEAKKVIG,soluble
9,MKTIFSGIQPSGVITIGNYIGALRQFVELQHEYNCYFCIVDQHAITVWQDPHELRQNIRRLAALYLAVGIDPTQATLFIQSEVPAHAQAAWMLQCIVYIGELERMTQFKEKSAGKEAVSAGLLTYPPLMAADILLYNTDIVPVGEDQKQHIELTRDLAERFNKRYGELFTIPEARIPKVGARIMSLVDPTKKMSKSDPNPKAYITLLDDAKTIEKKIKSAVTDSEGTIRYDKEAKPGISNLLNIYSTLSGQSIEELERQYEGKGYGVFKADLAQVVIETLRPIQERYHHWMESEELDRVLDEGAEKANRVASEMVRKMEQAMGLGRRR,soluble
10,MEEGYRLKFIFIGNQNNNIKNKNFSNPHNILFDSKKDIILTQDLCEEFLNLNINKQDHAIELLKKELSPLLFEDSLSYLKEEFINEKLEFNISNLASRYTANNDVDTINNKIIEGISITNNFKYTNISYLKELKGYIENDILDKMKSKYAKNIYLNFKKIFSNLEQSVNNYLELEEEFEEKKKYLSEIYELIDEINIDPYIFLTEHNECNIYKISENEKLELQTYMSKIEKVLLKYQTYLKETCKECLFYPYLLVQGEAGIGKSHLLAHLSKKLRDENHIIYLFLGQFFTKNEDPWHQILNDLEVTNSVDNFLRSISNKAKETKKRAFIIIDALNEGEGKRLWGNYFQSFINHIKKYSNIALIFSIRTPFEDVILPKNAIQDNNIVVFQHEGFSKEENYNPIVSFCDFYGLELPKLPILNPEFNNPLFLKLMCEYCVNKFKEFDQTISVAELFTNVLKTVNINLSKEDKFDFDKNINVVQKVIKGLVELMNDSEFNQLNYEESYTVVNNIAKEYVQKSNRFLEALIDENILIKNTGYKGEMIIYFSYERMGDYFLSEYLLEKYRNVDKRDLVTKLQSDEKVTRYFQKEDDLSYNRGLINELFIKLANEFNIELFEVFPQFKNNYNMIYSFINSLVWRKDGSISKHTKCYISDNVIPYDAFRNNFLDVLLIKMPQKNHPLNIWALHKLLKQCNLGKRDFLWTQYISINNEKVFEIINWLFSNYKKLDEETAEKYMIFLTWIFSATNNKLRDLGTKSLVKLFKTFPTKIIGLLKLFENNNDPYIVERLYASVLGATLRIDICEIHIEIANYIYEEIFDKEMVYPHILMRDYARQTIEYISLSKDISNINLEKIRPPYKSNWYKKEYSNLNIDDYIKSLKNKLDSHLHFSIDKIKNSMTTEYGRGTGAYGDFGRYVFGYAVRNWVKGFKSDQDLSNIALMRIFEMGYDAKLHGEFDMWVNRYDNFNNSIERISKKYQWIAYYEILAKLVDKFPDVQYSGLWDDYIRDIDPTLLLLEIDK,not soluble
